This passage reports Miller units (β-Gal activity) results from publication PMC7284817.

For test [1], the target named is S. mansoni neuropeptide NPP2a, membrane-anchored ligand fusion (linker-WBP1 TMP-Cub-GAL4) (S. mansoni). The test can be described thus: two-hybrid; MALAR-Y2H; β-galactosidase (ONPG) assay of diploid cells, lysate incubated 30 min at 30°C, OD405, Miller Units, mean of two clones.
Test [2] concerns the target CXC-motif chemokine ligand 12 (CXCL12), membrane-anchored ligand fusion (Cub-GAL4). The test is described as above.

Sequence of mouse receptor CXCR4, NubG fusion (positive control) (P70658 whole entry, the tested form may be a part): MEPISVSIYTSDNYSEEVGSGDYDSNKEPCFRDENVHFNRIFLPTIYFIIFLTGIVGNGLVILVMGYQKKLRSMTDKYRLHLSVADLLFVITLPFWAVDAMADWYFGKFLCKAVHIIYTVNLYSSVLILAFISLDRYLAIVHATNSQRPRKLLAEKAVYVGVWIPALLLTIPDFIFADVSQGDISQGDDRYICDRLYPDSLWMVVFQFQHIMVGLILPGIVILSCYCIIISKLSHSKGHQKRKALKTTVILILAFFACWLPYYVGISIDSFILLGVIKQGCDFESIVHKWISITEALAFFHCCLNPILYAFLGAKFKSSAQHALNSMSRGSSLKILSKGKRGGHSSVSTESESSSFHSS

“Schistosoma mansoni G protein-coupled receptor GPCR14 (Smp_203500), fused to NubG”: the Miller units (β-Gal activity) in test [1] was found to be 2.68 Miller units. “mouse receptor CXCR4, NubG fusion (positive control)” had a Miller units (β-Gal activity) in test [2] of 3.07 Miller units.
